We go through four molecules from PMC10192343, “Structural and functional analyses of the echinomycin resistance conferring protein Ecm16 from Streptomyces lasalocidi” (Scientific Reports, 2023).

Marks after values point to notes of the source that are not given here.

The target in data set [1] is Ecm16* (Streptomyces lasalocidi (insertion domain from Streptomyces peucetius DrrC)) (UniProt Q0X0A9). The data set is described as follows: fluorescence polarization. The following applies: apparent KD, Hill fit, FP: 50 mM HEPES pH 7.5, 50 mM NaCl, 50 nM DNA, 4-512 nM protein, temperature not stated, EMSA: same buffer plus 0.1 mg/ml BSA.
The next data set addresses T1, UvrA (Thermotoga maritima, UniProt Q9WYV0).
T1 construct: pET28a(+) construct, E. coli Rosetta (DE3) pLysS, His-Trap purified, no tag cleavage mentioned
T1 sequence (Q9WYV0 1-916): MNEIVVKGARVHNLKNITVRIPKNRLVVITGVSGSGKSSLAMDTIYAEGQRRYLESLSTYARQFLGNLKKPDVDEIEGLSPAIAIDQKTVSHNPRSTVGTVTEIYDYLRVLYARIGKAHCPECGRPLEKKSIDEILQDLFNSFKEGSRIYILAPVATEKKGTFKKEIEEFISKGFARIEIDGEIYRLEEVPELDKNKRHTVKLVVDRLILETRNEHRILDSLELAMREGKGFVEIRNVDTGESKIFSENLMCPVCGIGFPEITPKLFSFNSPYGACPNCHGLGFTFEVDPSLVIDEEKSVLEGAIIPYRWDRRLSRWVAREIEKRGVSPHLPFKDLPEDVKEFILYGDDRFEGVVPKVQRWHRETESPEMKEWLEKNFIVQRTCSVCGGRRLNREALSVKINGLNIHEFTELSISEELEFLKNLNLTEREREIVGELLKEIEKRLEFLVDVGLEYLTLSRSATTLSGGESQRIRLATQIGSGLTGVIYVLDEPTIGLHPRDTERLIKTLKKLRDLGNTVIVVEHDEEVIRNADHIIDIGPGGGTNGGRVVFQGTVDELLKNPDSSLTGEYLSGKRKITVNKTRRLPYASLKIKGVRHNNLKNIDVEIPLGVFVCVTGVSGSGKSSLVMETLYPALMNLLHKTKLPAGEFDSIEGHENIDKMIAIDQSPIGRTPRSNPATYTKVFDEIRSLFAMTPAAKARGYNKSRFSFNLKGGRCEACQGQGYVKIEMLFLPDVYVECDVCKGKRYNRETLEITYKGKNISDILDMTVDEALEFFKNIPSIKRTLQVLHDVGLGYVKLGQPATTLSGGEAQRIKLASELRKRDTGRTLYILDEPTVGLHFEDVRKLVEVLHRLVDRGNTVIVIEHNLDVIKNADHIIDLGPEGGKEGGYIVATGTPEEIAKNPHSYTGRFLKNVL
In words: ATPase, EnzChek phosphate assay (MESG/PNP, […] nm). It is filed as biochemical. As to conditions: 1 µM echinomycin-DNA or DNA, 50 mM HEPES pH 7.5, 50 mM NaCl, 10 mM MgCl2, 22 °C.

For data set [2], the target named is Ecm16 (Streptomyces lasalocidi, UniProt Q0X0A9). As to conditions: 1 µM echinomycin-DNA or DNA, 50 mM HEPES pH 7.5, 50 mM NaCl, 10 mM MgCl2, 22 °C.
Data set [3] deals with the molecule itself. The data set is described as follows: crystal structure; hanging drop vapour diffusion at 18 °C; 8 mg/ml Ecm16, 10 mM MgCl2, 1 mM ADP mixed with 0.1 M MES pH 6.5, 0.2 M sodium thiocyanate, 12% PEG 20K; 2.0 Å; homodimer in the model.
Data set [4] deals with T2, Ecm16 (Streptomyces lasalocidi, UniProt Q0X0A9 1-792).
T2 sequence: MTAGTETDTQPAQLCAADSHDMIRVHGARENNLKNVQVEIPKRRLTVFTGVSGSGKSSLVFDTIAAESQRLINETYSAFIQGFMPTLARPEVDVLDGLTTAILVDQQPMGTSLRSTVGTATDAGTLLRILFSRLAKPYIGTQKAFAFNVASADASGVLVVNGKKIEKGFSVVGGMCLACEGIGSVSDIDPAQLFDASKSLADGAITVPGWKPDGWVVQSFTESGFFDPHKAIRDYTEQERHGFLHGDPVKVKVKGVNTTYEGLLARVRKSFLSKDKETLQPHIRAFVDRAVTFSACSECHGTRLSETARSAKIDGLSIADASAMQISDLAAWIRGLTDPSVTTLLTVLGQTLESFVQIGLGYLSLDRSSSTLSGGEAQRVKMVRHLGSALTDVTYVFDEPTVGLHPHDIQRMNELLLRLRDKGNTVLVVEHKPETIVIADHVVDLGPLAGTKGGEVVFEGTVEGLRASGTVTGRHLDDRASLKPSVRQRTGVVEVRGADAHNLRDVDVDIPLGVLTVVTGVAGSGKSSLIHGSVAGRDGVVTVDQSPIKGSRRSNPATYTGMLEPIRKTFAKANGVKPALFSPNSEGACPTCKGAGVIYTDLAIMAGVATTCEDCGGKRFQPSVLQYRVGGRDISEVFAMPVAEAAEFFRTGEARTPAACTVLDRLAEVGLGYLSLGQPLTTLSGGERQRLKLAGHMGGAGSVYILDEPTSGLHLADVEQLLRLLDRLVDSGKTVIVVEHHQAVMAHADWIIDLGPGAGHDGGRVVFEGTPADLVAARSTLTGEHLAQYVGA
The data set is described as follows: fluorescence polarization; no echinomycin; apparent KD, Hill fit; FP: 50 mM HEPES pH 7.5, 50 mM NaCl, 50 nM DNA, 4-512 nM protein, temperature not stated; EMSA: same buffer plus 0.1 mg/ml BSA, 50 nM DNA, echinomycin:DNA 1.1:1, 15 min at room temperature, 6% native gel at 4 °C. As to conditions: protein: recombinant; tags: His (pET28a, Ni-NTA); chain copies: 2; label: 5'-FAM on both strands; blunt; self-complementary. On the technique in general: Polarisation of emitted light reports the rotation of a fluorescent probe.

The target in data set [5] is T2, Ecm16. The data set is described as follows: fluorescence polarization; echinomycin-bound DNA; apparent KD, Hill fit; FP: 50 mM HEPES pH 7.5, 50 mM NaCl, 50 nM DNA, 4-512 nM protein, temperature not stated; EMSA: same buffer plus 0.1 mg/ml BSA, 50 nM DNA, echinomycin:DNA 1.1:1, 15 min at room temperature, 6% native gel at 4 °C. As to conditions: protein: recombinant; tags: His (pET28a, Ni-NTA); chain copies: 2; label: 5'-FAM on both strands; blunt; self-complementary.

For “AGTGATCAGTGGTTACGTAACCACTGATCACT (double strand) [FAM 32-bp DNA]”, the Kd was determined as 37.7 nM in data set [1] (echinomycin-bound DNA) and 90.8 nM in data set [1] (no echinomycin).
As to `Nc1ncnc2c1ncn2[C@@H]1O[C@H](COP(=O)(O)OP(=O)(O)OP(=O)(O)O)[C@@H](O)[C@H]1O` [ATP], the “ATPase, EnzChek phosphate assay (MESG/PNP, 360 nm)” value was “Ecm16* and UvrA showed a similar basal ATPase activity for all four DNA substrates” on UvrA; “we measured the ATP hydrolysis activity of Ecm16, Ecm16-ΔID, Ecm16*, and UvrA” on Ecm16 [2].

B1: Ecm16 from Streptomyces lasalocidi (natural protein)
chain: MTAGTETDTQPAQLCAADSHDMIRVHGARENNLKNVQVEIPKRRLTVFTGVSGSGKSSLVFDTIAAESQRLINETYSAFIQGFMPTLARPEVDVLDGLTTAILVDQQPMGTSLRSTVGTATDAGTLLRILFSRLAKPYIGTQKAFAFNVASADASGVLVVNGKKIEKGFSVVGGMCLACEGIGSVSDIDPAQLFDASKSLADGAITVPGWKPDGWVVQSFTESGFFDPHKAIRDYTEQERHGFLHGDPVKVKVKGVNTTYEGLLARVRKSFLSKDKETLQPHIRAFVDRAVTFSACSECHGTRLSETARSAKIDGLSIADASAMQISDLAAWIRGLTDPSVTTLLTVLGQTLESFVQIGLGYLSLDRSSSTLSGGEAQRVKMVRHLGSALTDVTYVFDEPTVGLHPHDIQRMNELLLRLRDKGNTVLVVEHKPETIVIADHVVDLGPLAGTKGGEVVFEGTVEGLRASGTVTGRHLDDRASLKPSVRQRTGVVEVRGADAHNLRDVDVDIPLGVLTVVTGVAGSGKSSLIHGSVAGRDGVVTVDQSPIKGSRRSNPATYTGMLEPIRKTFAKANGVKPALFSPNSEGACPTCKGAGVIYTDLAIMAGVATTCEDCGGKRFQPSVLQYRVGGRDISEVFAMPVAEAAEFFRTGEARTPAACTVLDRLAEVGLGYLSLGQPLTTLSGGERQRLKLAGHMGGAGSVYILDEPTSGLHLADVEQLLRLLDRLVDSGKTVIVVEHHQAVMAHADWIIDLGPGAGHDGGRVVFEGTPADLVAARSTLTGEHLAQYVGA
notes: Ecm16, UvrA-like self-resistance protein of the echinomycin biosynthetic gene cluster, Streptomyces lasalocidi (formerly S. lasaliensis); codon-optimised gene in pET28a(+) between NdeI and EcoRI; cloning by NdeI into pET28a(+) would put a His tag on the N-terminus (surmised); also called WT Ecm16; echinomycin resistance conferring protein Ecm16; source: E. coli BL21 (DE3), purified (Ni-NTA, …)
What is called stoichiometry N is the number of molecules, sites or subunits per partner or assembly. On to B1, for which the “stoichiometry N” value in data set [3] came to 2.

B2: FAM 32-bp DNA (dsDNA)
DNA 1: AGTGATCAGTGGTTACGTAACCACTGATCACT
DNA 2: AGTGATCAGTGGTTACGTAACCACTGATCACT
Consider B2, for which the Kd with Ecm16 [4] stood at 60.2 ± 2.1 nM; with Ecm16 [5] it was 11.8 ± 1.7 nM.
